Reference: the supplement of paper PMC9112550, “Optimization of the antimicrobial peptide Bac7 by deep mutational scanning” (BMC Biology, 2022)

System: Escherichia coli TOP10
Assay: shrunken log2 fold change of peptide-encoding DNA abundance (4.5 h post-induction vs induction); higher = less antimicrobial activity (less host growth inhibition)
Conditions: time post-induction: 4.5 h; library: site-saturation at positions 5, 18, 19, 20
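Also: peptides expressed intracellularly from a pBAD plasmid library in pooled LB shake-flask culture, induced with 0.3% L-arabinose, DNA abundance read by NGS, three biological replicates, DESeq2 with apeglm shrinkage.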

First: RRIRLRPPRLPRPRPRPRRFPRP
Second: RRIRVRPPRLPRPRPRPDEEPRP
The “shrunken log2 fold change” value of the first is lower: 0.142 for the first, 0.393 for the second.

First: RRIRDRPPRLPRPRPRPNHTPRP
Second: RRIRDRPPRLPRPRPRPAACPRP
The “shrunken log2 fold change” value of the first is lower: -0.0643 for the first, 0.598 for the second.

RRIRGRPPRLPRPRPRPQFKPRP and RRIRCRPPRLPRPRPRPSRMPRP are within 0.2 log units of each other in “shrunken log2 fold change” value: 0.0112 for the first, -0.144 for the second.

Compared with RRIRERPPRLPRPRPRPQYMPRP, RRIRARPPRLPRPRPRPWLCPRP is higher in “shrunken log2 fold change” value: -0.213 for the first, 0.116 for the second.

Going from RRIRGRPPRLPRPRPRPCCRPRP to RRIRHRPPRLPRPRPRPRIMPRP, the “shrunken log2 fold change” value falls from 0.918 to -0.577.

First: RRIRLRPPRLPRPRPRPGGVPRP
Second: RRIRFRPPRLPRPRPRPYRPPRP
The “shrunken log2 fold change” value of the first is higher: 0.0323 for the first, -1.76 for the second.

Compared with RRIRERPPRLPRPRPRPSCIPRP, RRIRLRPPRLPRPRPRPCMWPRP is higher in “shrunken log2 fold change” value: -0.455 for the first, -0.0832 for the second.

RRIRKRPPRLPRPRPRPTFPPRP and RRIRLRPPRLPRPRPRPCLRPRP are within 0.2 log units of each other in “shrunken log2 fold change” value: 0.0736 for the first, -0.0817 for the second.

RRIRKRPPRLPRPRPRPEDFPRP and RRIRMRPPRLPRPRPRPYGPPRP are within 0.2 log units of each other in “shrunken log2 fold change” value: 0.24 for the first, 0.0478 for the second.

Going from RRIRRRPPRLPRPRPRPVNMPRP to RRIRCRPPRLPRPRPRPTQMPRP, the “shrunken log2 fold change” value rises from -0.156 to 0.565.

Compared with RRIRKRPPRLPRPRPRPEHEPRP, RRIRYRPPRLPRPRPRPHFKPRP is lower in “shrunken log2 fold change” value: 1.09 for the first, -0.346 for the second.

RRIRFRPPRLPRPRPRPARVPRP and RRIRDRPPRLPRPRPRPSIGPRP are within 0.2 log units of each other in “shrunken log2 fold change” value: 0.319 for the first, 0.154 for the second.

RRIRQRPPRLPRPRPRPGNCPRP and RRIRGRPPRLPRPRPRPDDMPRP are within 0.2 log units of each other in “shrunken log2 fold change” value: -0.0905 for the first, 0.00936 for the second.

RRIRGRPPRLPRPRPRPHMEPRP and RRIRLRPPRLPRPRPRPPMDPRP are within 0.2 log units of each other in “shrunken log2 fold change” value: 0.0707 for the first, 0.0462 for the second.

RRIRLRPPRLPRPRPRPCCFPRP and RRIRQRPPRLPRPRPRPDCHPRP are within 0.2 log units of each other in “shrunken log2 fold change” value: -0.0513 for the first, -0.0897 for the second.

Compared with RRIRIRPPRLPRPRPRPFWEPRP, RRIRQRPPRLPRPRPRPDRQPRP is lower in “shrunken log2 fold change” value: 0.366 for the first, 0.0104 for the second.

RRIRPRPPRLPRPRPRPEKNPRP and RRIRCRPPRLPRPRPRPYPKPRP are within 0.2 log units of each other in “shrunken log2 fold change” value: 0.101 for the first, 0.0488 for the second.

Going from RRIRQRPPRLPRPRPRPNIWPRP to RRIRTRPPRLPRPRPRPLDYPRP, the “shrunken log2 fold change” value falls from -0.0842 to -2.42.

First: RRIRLRPPRLPRPRPRPDICPRP
Second: RRIRWRPPRLPRPRPRPAQMPRP
The “shrunken log2 fold change” value of the first is lower: -0.102 for the first, 0.173 for the second.

Compared with RRIRNRPPRLPRPRPRPTQFPRP, RRIRHRPPRLPRPRPRPCMCPRP is lower in “shrunken log2 fold change” value: 0.138 for the first, -0.245 for the second.

Compared with RRIRERPPRLPRPRPRPGWDPRP, RRIRWRPPRLPRPRPRPYEYPRP is lower in “shrunken log2 fold change” value: 0.0203 for the first, -0.254 for the second.

Compared with RRIRDRPPRLPRPRPRPNSNPRP, RRIRARPPRLPRPRPRPMVMPRP is higher in “shrunken log2 fold change” value: -0.573 for the first, -0.00579 for the second.

RRIRIRPPRLPRPRPRPRCRPRP and RRIRFRPPRLPRPRPRPSEHPRP are within 0.2 log units of each other in “shrunken log2 fold change” value: -0.164 for the first, -0.323 for the second.

Compared with RRIRRRPPRLPRPRPRPQGEPRP, RRIRSRPPRLPRPRPRPITGPRP is lower in “shrunken log2 fold change” value: 0.373 for the first, -0.105 for the second.

RRIRNRPPRLPRPRPRPPEQPRP and RRIRDRPPRLPRPRPRPHSYPRP are within 0.2 log units of each other in “shrunken log2 fold change” value: 0.112 for the first, -0.0739 for the second.

Going from RRIRGRPPRLPRPRPRPSEKPRP to RRIRCRPPRLPRPRPRPWPQPRP, the “shrunken log2 fold change” value falls from 1.49 to -0.0463.

Going from RRIRCRPPRLPRPRPRPKAYPRP to RRIRIRPPRLPRPRPRPYPPPRP, the “shrunken log2 fold change” value falls from -0.0053 to -0.818.

RRIRGRPPRLPRPRPRPRYLPRP and RRIRHRPPRLPRPRPRPVPTPRP are within 0.2 log units of each other in “shrunken log2 fold change” value: 0.282 for the first, 0.144 for the second.

Compared with RRIRDRPPRLPRPRPRPTHRPRP, RRIRTRPPRLPRPRPRPTAWPRP is higher in “shrunken log2 fold change” value: 0.0815 for the first, 0.48 for the second.

Compared with RRIRTRPPRLPRPRPRPTLGPRP, RRIRNRPPRLPRPRPRPTEDPRP is lower in “shrunken log2 fold change” value: 0.0554 for the first, -0.187 for the second.

RRIRDRPPRLPRPRPRPQSFPRP and RRIRARPPRLPRPRPRPVFKPRP are within 0.2 log units of each other in “shrunken log2 fold change” value: -0.0337 for the first, 0.115 for the second.

Going from RRIRVRPPRLPRPRPRPGHIPRP to RRIRFRPPRLPRPRPRPFMGPRP, the “shrunken log2 fold change” value falls from -0.028 to -0.348.

First: RRIRARPPRLPRPRPRPLAMPRP
Second: RRIRYRPPRLPRPRPRPFNQPRP
The “shrunken log2 fold change” value of the first is higher: 0.474 for the first, -0.0309 for the second.

RRIRARPPRLPRPRPRPLIYPRP and RRIRERPPRLPRPRPRPLLMPRP are within 0.2 log units of each other in “shrunken log2 fold change” value: 0.0475 for the first, 0.0107 for the second.

RRIRNRPPRLPRPRPRPKHVPRP and RRIRSRPPRLPRPRPRPCRSPRP are within 0.2 log units of each other in “shrunken log2 fold change” value: -0.0669 for the first, -0.0435 for the second.

Going from RRIRVRPPRLPRPRPRPSKHPRP to RRIRHRPPRLPRPRPRPQYWPRP, the “shrunken log2 fold change” value falls from -0.538 to -0.806.

First: RRIRQRPPRLPRPRPRPQTQPRP
Second: RRIRTRPPRLPRPRPRPLMHPRP
The “shrunken log2 fold change” value of the first is higher: 0.025 for the first, -0.454 for the second.

First: RRIRQRPPRLPRPRPRPITCPRP
Second: RRIRARPPRLPRPRPRPQPHPRP
The “shrunken log2 fold change” value of the first is lower: -0.0276 for the first, 0.347 for the second.

Compared with RRIRFRPPRLPRPRPRPSSMPRP, RRIRCRPPRLPRPRPRPKMHPRP is higher in “shrunken log2 fold change” value: -0.965 for the first, -0.121 for the second.

Compared with RRIRCRPPRLPRPRPRPIYYPRP, RRIRWRPPRLPRPRPRPHCTPRP is higher in “shrunken log2 fold change” value: -0.653 for the first, -0.401 for the second.

First: RRIRRRPPRLPRPRPRPPAIPRP
Second: RRIRDRPPRLPRPRPRPTNHPRP
The “shrunken log2 fold change” value of the first is higher: 1.03 for the first, -0.247 for the second.

First: RRIRKRPPRLPRPRPRPAADPRP
Second: RRIRSRPPRLPRPRPRPNCTPRP
The “shrunken log2 fold change” value of the first is higher: 0.941 for the first, -0.531 for the second.

First: RRIRCRPPRLPRPRPRPYPRPRP
Second: RRIRERPPRLPRPRPRPNPNPRP
The “shrunken log2 fold change” value of the first is higher: -0.00439 for the first, -0.365 for the second.

RRIRMRPPRLPRPRPRPIASPRP and RRIRWRPPRLPRPRPRPNIQPRP are within 0.2 log units of each other in “shrunken log2 fold change” value: 0.0465 for the first, -0.0736 for the second.

RRIRWRPPRLPRPRPRPHWCPRP and RRIRSRPPRLPRPRPRPSCMPRP are within 0.2 log units of each other in “shrunken log2 fold change” value: -0.062 for the first, -0.129 for the second.

RRIRPRPPRLPRPRPRPSFYPRP and RRIRSRPPRLPRPRPRPWAHPRP are within 0.2 log units of each other in “shrunken log2 fold change” value: -0.303 for the first, -0.186 for the second.

RRIRHRPPRLPRPRPRPEENPRP and RRIRARPPRLPRPRPRPDVSPRP are within 0.2 log units of each other in “shrunken log2 fold change” value: 0.0237 for the first, 0.106 for the second.

Going from RRIRMRPPRLPRPRPRPLRMPRP to RRIRWRPPRLPRPRPRPFANPRP, the “shrunken log2 fold change” value falls from 1.88 to -0.0747.

RRIRARPPRLPRPRPRPKKWPRP and RRIRERPPRLPRPRPRPYRHPRP are within 0.2 log units of each other in “shrunken log2 fold change” value: 0.0405 for the first, -0.0262 for the second.

RRIRLRPPRLPRPRPRPVKCPRP and RRIRERPPRLPRPRPRPDESPRP are within 0.2 log units of each other in “shrunken log2 fold change” value: -0.122 for the first, -0.304 for the second.

Compared with RRIRIRPPRLPRPRPRPVQMPRP, RRIRVRPPRLPRPRPRPECHPRP is higher in “shrunken log2 fold change” value: -0.675 for the first, 0.241 for the second.

RRIRTRPPRLPRPRPRPPEVPRP and RRIRKRPPRLPRPRPRPDMAPRP are within 0.2 log units of each other in “shrunken log2 fold change” value: 0.0579 for the first, 0.0491 for the second.

Compared with RRIRWRPPRLPRPRPRPVHIPRP, RRIRDRPPRLPRPRPRPGTTPRP is higher in “shrunken log2 fold change” value: -0.091 for the first, 0.427 for the second.

Compared with RRIRARPPRLPRPRPRPLLLPRP, RRIRFRPPRLPRPRPRPYAGPRP is lower in “shrunken log2 fold change” value: 0.313 for the first, -0.208 for the second.

In the case of RRIRNRPPRLPRPRPRPCCRPRP, the “shrunken log2 fold change” value is reported as -0.0438.
